Reference: the supplement of paper PMC9170038

Test system: MS2 coat protein
Assay: apparent KD of MS2 coat protein; designed switch direction (-1 OFF switch, 1 ON switch): -1; higher = weaker reporter binding
Summary of the method: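 Designed RNA switches with common flanks were made on Illumina chips by stalled E. coli RNA polymerase. Titration with SNAP-549-labelled MS2 coat protein doubled from 0.7 or 1.5 nM up to 3 µM. Apparent KD is each design's median over clusters after curve-fitting normalised fluorescence.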

[1] = Eterna round: R95, input ligand: FMN 200 uM
[2] = Eterna round: R95, input ligand: microRNA oligo, concentration not stated
[3] = Eterna round: R95, input ligand: none
[4] = input ligand: microRNA oligo, concentration not stated

GAAAAGGGAGGAUAUACAAGAAGAAAAGAAAAGAAAAGAAAACAUGAGGAUCACCCAUGUAGAAGGCCCAAAAG [Default title] (puzzle: Exclusion 2)
apparent KD of MS2 coat protein [1]: 22.6 nM
apparent KD of MS2 coat protein [2]: 18.7 nM
apparent KD of MS2 coat protein [3]: 23.8 nM

GAAAAGGUAGGAUAUACAAAAAAAAAGGGUAGAAAAAAAACACAUGAGGAUCACCCAUGUAGAAGGACCAAAAG [salish99_ex2_r3_057] (puzzle: Exclusion 2)
apparent KD of MS2 coat protein [1]: 83.7 nM
apparent KD of MS2 coat protein [2]: 37 nM
apparent KD of MS2 coat protein [3]: 25.9 nM

GAAAAGGUAGGAUAUACGAAAAAAAAGGGUAGAAAAAAAACACAUGAGGAUCACCCAUGUAGAAGGACCAUAAG [salish99_ex2_r3_091] (puzzle: Exclusion 2)
apparent KD of MS2 coat protein [1]: 63.3 nM
apparent KD of MS2 coat protein [2]: 29.9 nM
apparent KD of MS2 coat protein [3]: 29.2 nM

GAAAAGGUAGGAUAUACGAAAAAAAAGGGUAGAAAAAAAACACAUGAGGAUCACCCAUGUAGAAGGACCUAAAG [salish99_ex2_r3_090] (puzzle: Exclusion 2)
apparent KD of MS2 coat protein [1]: 56.1 nM
apparent KD of MS2 coat protein [2]: 25.7 nM
apparent KD of MS2 coat protein [3]: 24.6 nM

GAAAAGGUAGGAUAUACGAAAAAAAAGGGUAGAAAAAAAUCACAUGAGGAUCACCCAUGUAGAAGGACCAAAAG [salish99_ex2_r3_072] (puzzle: Exclusion 2)
apparent KD of MS2 coat protein [1]: 62.3 nM
apparent KD of MS2 coat protein [2]: 25 nM
apparent KD of MS2 coat protein [3]: 28.3 nM

GAAAAGGUAGGAUAUACGAAAAAAAAGGGUUGAAAAAAAACACAUGAGGAUCACCCAUGUAGAAGGACCAAAAG [salish99_ex2_r3_080] (puzzle: Exclusion 2)
apparent KD of MS2 coat protein [1]: 140 nM
apparent KD of MS2 coat protein [2]: 19.7 nM
apparent KD of MS2 coat protein [3]: 26 nM

GAAAAGGUAGGAUAUACGAAAAGAAAGGGUAGAAAGAAAACACAUGAGGAUCACCCAUGUAGAAGGACCAAAAG [salish99_ex2_r3_095] (puzzle: Exclusion 2)
apparent KD of MS2 coat protein [1]: 37.3 nM
apparent KD of MS2 coat protein [2]: 14.6 nM
apparent KD of MS2 coat protein [3]: 26.8 nM

GAAAAGUGAGGAUAUGCUCGAUCCUGGCACCAAGUGAAGUCACUUGAGGAUCACCCAAGUAGAAGGCACAUAAA [Tiederes] (Eterna round: R97, puzzle: Exclusion 2)
apparent KD of MS2 coat protein (input ligand: FMN 200 uM): 206 nM
apparent KD of MS2 coat protein (input ligand: none): 55.3 nM

GAAAAUGUGGAGGAUAUCGACUUCGAAAGAAGUCGAGAAGGCCACACAUGAGGAUCACCCAUGUGUUGCUUAUA [Omei Ex6 H7] (Eterna round: R97, puzzle: Exclusion 6)
apparent KD of MS2 coat protein (input ligand: FMN 200 uM): 20.7 nM
apparent KD of MS2 coat protein (input ligand: none): 16 nM

GAAAAUUGGGCAGGAUAUCUAAUGAAAGAAACCGGAGAAGGGCCGGUGGCAAUUGCAGACAUGAGGAUCACCCAUGUAGUUGCA [Eternabot solution 42] (Eterna round: R96, puzzle: Exclusion NG 1)
apparent KD of MS2 coat protein (input ligand: FMN 200 uM): 13.5 nM
apparent KD of MS2 coat protein [4]: 15.2 nM
apparent KD of MS2 coat protein (input ligand: none): 14.9 nM

GAAAGGUGAGGAUAUACACUGCGGUGUAGUCCUCAUAAAAGACAUGAGGAUCACCCAUGUAGAAGGCACAUAAA [Rirereis] (puzzle: Exclusion 2)
apparent KD of MS2 coat protein [1]: 96 nM
apparent KD of MS2 coat protein [2]: 32.8 nM
apparent KD of MS2 coat protein [3]: 27.5 nM

GAACUGAGGCUUUGCUUUAGUCGUACAUGAGGAUCACCCAUGUAGGAUAUGGUAGGCUUUGCUUACCAGAAGGACAGAGUGAUC [JL EXNG3 1.21] (Eterna round: R96, puzzle: Exclusion NG 3)
apparent KD of MS2 coat protein (input ligand: FMN 200 uM): 52.9 nM
apparent KD of MS2 coat protein [4]: 192 nM
apparent KD of MS2 coat protein (input ligand: none): 195 nM

GAAGAAGAGAGAAUAGAAAACAUGAGGAUCACCCAUGUUAAGAGAUGAGGGUGUAAUAGGAUUUUUGCUCGUCUUAU (puzzle: Sensor v3, turn-off variant 1)
apparent KD of MS2 coat protein [1]: 38.3 nM
apparent KD of MS2 coat protein [2]: 54 nM
apparent KD of MS2 coat protein [3]: 40.5 nM

GAAGAGACAGGAUAUACAUGAGGAUCACCCAUGUGAGGAGGUUGGAAGCGGAGAAGGUGUAGAAGGGUCAAAGA [JR_Exclu3_Sub023] (puzzle: Exclusion 3)
apparent KD of MS2 coat protein [1]: 75.1 nM
apparent KD of MS2 coat protein [2]: 37.1 nM
apparent KD of MS2 coat protein [3]: 80.7 nM

GAAGAGACAGGAUAUACAUGAGGAUCACCCAUGUGAGUAUGUUGGAGGCGGAGGAGGUGUAGAAGGGUCAAAGA [JR_Exclu3_Sub019] (puzzle: Exclusion 3)
apparent KD of MS2 coat protein [2]: 20.2 nM

GACCCAGAUGUAAGGAUAUCGAGCUGCGUCAGGUUCGAGAAGGUACAUGAGGAUCACCCAUGUGCAAGCACUCC [BmEX4 B.18] (Eterna round: R97, puzzle: Brourd's mod of Exclusion 4)
apparent KD of MS2 coat protein (input ligand: FMN 200 uM): 32.8 nM
apparent KD of MS2 coat protein (input ligand: none): 17.4 nM

GACCCUAGGGUCAGACCCACAAGCUUUUUGCUCGUUUUAACAUGAGGAUCACCCAUGUCUAGUGGAUCUGAUCGGGC [Geores] (puzzle: Sensor v3, turn-off variant 2)
apparent KD of MS2 coat protein [1]: 18.4 nM
apparent KD of MS2 coat protein [2]: 76.4 nM
apparent KD of MS2 coat protein [3]: 17.2 nM

GACCGGACGUGGUCUGGUAACAUGAGGAUCACCCAUGUUGGUCUAAGAACAUGCCUUUUGCACGCUCGUCUUAUAUU [JR_SV3TOV1_Sub062] (puzzle: Sensor v3, turn-off variant 1)
apparent KD of MS2 coat protein [1]: 66.2 nM
apparent KD of MS2 coat protein [2]: 29.6 nM
apparent KD of MS2 coat protein [3]: 80.5 nM

GACUAGUGAGGAUAUAUUUGCAGUGUACCUCGGGUGAUCGCACUUGAGGAUCACCCAAGUAGAAGGCGCGAGGG [EX2 #25] (Eterna round: R97, puzzle: Exclusion 2)
apparent KD of MS2 coat protein (input ligand: FMN 200 uM): 47.7 nM
apparent KD of MS2 coat protein (input ligand: none): 355 nM

GACUGACAUGAGGAUCACCCAUGUAAGGAUAUAGGGAGCGUCGCUCCGCAACCCGCGCCUAGAAGGUACAAGGU [EX1 C.20] (Eterna round: R97, puzzle: Exclusion 1)
apparent KD of MS2 coat protein (input ligand: FMN 200 uM): 18.2 nM
apparent KD of MS2 coat protein (input ligand: none): 21.2 nM

GACUGCCGAGGAUAUACAUGAGGAUCACCCAUGUGCUUCAGCAUUUUUUAAUGCAUGGGUAGAAGGCGGUAGUU [LRO-Excl3-14] (puzzle: Exclusion 3)
apparent KD of MS2 coat protein [2]: 31.5 nM

GAGAAAGCAAGCAAGUGAAACAUGAGGAUCACCCAUGUCCUCAUUUGCUCGUCUUAUAAGCUAUGCGAAAGCAUAGC [Mat - Sensor v3 - turn-off var 1 - Eli Mod - D50] (puzzle: Sensor v3, turn-off variant 1)
apparent KD of MS2 coat protein [1]: 12.3 nM
apparent KD of MS2 coat protein [2]: 101 nM
apparent KD of MS2 coat protein [3]: 11.3 nM

GAGAAAUUAUAGGAUAUCGAAAGGAUAAUUUAACGAGAAGGAUGAACAUGAGGAUCACCCAUGUGGUAUCAUGG [JL-ex6-3.11] (puzzle: Exclusion 6)
apparent KD of MS2 coat protein [1]: 346 nM
apparent KD of MS2 coat protein [2]: 302 nM
apparent KD of MS2 coat protein [3]: 157 nM

GAGAAGGUAGGAUAUACGAAUAAAAAGGGUAGAAGAAGAACACAUGAGGAUCACCCAUGUAGAAGGACCAAGAG [Mat - Exclusion 2 - Mod of my Tesla design - D22] (puzzle: Exclusion 2)
apparent KD of MS2 coat protein [1]: 44 nM
apparent KD of MS2 coat protein [2]: 17.2 nM
apparent KD of MS2 coat protein [3]: 17.6 nM

GAGACAGAAGGAUAUACGUCCGCGAGUGCGAUGCGCUUGGGACAUGAGGAUCACCCAUGUAGAAGGUCUAACCC [Eternabot (L1) Solution 89] (Eterna round: R97, puzzle: Exclusion 2)
apparent KD of MS2 coat protein (input ligand: FMN 200 uM): 318 nM
apparent KD of MS2 coat protein (input ligand: none): 251 nM

GAGCUAUGAGGAUAUGCAUAUAUACGGUUUCGUGUGGUACUACAUGAGGAUCACCCAUGUAGAAGGCGUGGCUG [JL-ex2-2.05 mat747 mod] (puzzle: Exclusion 2)
apparent KD of MS2 coat protein [2]: 14.2 nM

GAGCUGUGAGGAUAUACAUGAGGAUCACCCAUGUUAAGGAAGUCGGGAUUAAUUUGGUGUAGAAGGCGCUUAUU [JR_Ex3_Sub020] (Eterna round: R97, puzzle: Exclusion 3)
apparent KD of MS2 coat protein (input ligand: FMN 200 uM): 44 nM
apparent KD of MS2 coat protein (input ligand: none): 42.5 nM

GAGGAGGUAGGAUAUACGAUAAUAUAGGGUAGAUAUAUAACACAUGAGGAUCACCCAUGUAGAAGGACCAGGAG [Mat - Exclusion 2 - Mod of my Tesla design - D64] (puzzle: Exclusion 2)
apparent KD of MS2 coat protein [2]: 36.7 nM

GAGGCAUGCUGAGGUCCACACAUGAGGAUCACCCAUGUAAUGACAAGCUUUUUCCUCGUCUUAUCGCUAUCGCGUUC [Dilaenla] (Eterna round: R96, puzzle: Sensor v3, turn-off variant 1)
apparent KD of MS2 coat protein (input ligand: FMN 200 uM): 13.1 nM
apparent KD of MS2 coat protein [4]: 22.2 nM
apparent KD of MS2 coat protein (input ligand: none): 16.3 nM

GAGGCAUGCUGAGGUCCACACAUGAGGAUCACCCAUGUAAUGACAAGCUUUUUCCUCGUCUUAUCGCUAUCGCGUUC [Dilaenla] (puzzle: Sensor v3, turn-off variant 1)
apparent KD of MS2 coat protein [1]: 15.5 nM
apparent KD of MS2 coat protein [2]: 28.4 nM
apparent KD of MS2 coat protein [3]: 15 nM

GAGGUACAUGAGGAUCACCCAUGUGAGGAUAUAGUGGAAGAUUGAGAGAGGUGGAGGACUAGAAGGCACAGUGG [JR_Exclu1_Sub039] (puzzle: Exclusion 1)
apparent KD of MS2 coat protein [2]: 48.1 nM
